Reference: patent publication US20160272683A1 (Novo Nordisk, published 2016)
One block for each binder: values may come before it. Numbered stars: 1 amine (or outer) side, 2 acyl side, 3 side chain; on linkers, the order of the positions; unused ones are H or OH. * marks the point of attachment. C20 diacid = O=C(O)CCCCCCCCCCCCCCCCCCC(=O)*; C18 diacid = O=C(O)CCCCCCCCCCCCCCCCC(=O)*; γGlu = O=C(O)[C@H](CCC(=O)[*:2])N[*:1]; AEEA = NCCOCCOCC(=O)O

Key:
[1] = biological target: T1, human amylin receptor (amylin 3(a) receptor: human calcitonin receptor with RAMP-3) (human, UniProt P30988 25-474; O60896 24-148, limits assumed); assay: SPA competition vs 125I-rat amylin, membranes with human CTR + RAMP-3 (Assay V)
T1 construct: whole, on cells; Assay V: membranes of the Amylin 3(a)/CRE-luc BHK cells on SPA beads; also called hAmylin-R
T1 sequence (looked up) 1: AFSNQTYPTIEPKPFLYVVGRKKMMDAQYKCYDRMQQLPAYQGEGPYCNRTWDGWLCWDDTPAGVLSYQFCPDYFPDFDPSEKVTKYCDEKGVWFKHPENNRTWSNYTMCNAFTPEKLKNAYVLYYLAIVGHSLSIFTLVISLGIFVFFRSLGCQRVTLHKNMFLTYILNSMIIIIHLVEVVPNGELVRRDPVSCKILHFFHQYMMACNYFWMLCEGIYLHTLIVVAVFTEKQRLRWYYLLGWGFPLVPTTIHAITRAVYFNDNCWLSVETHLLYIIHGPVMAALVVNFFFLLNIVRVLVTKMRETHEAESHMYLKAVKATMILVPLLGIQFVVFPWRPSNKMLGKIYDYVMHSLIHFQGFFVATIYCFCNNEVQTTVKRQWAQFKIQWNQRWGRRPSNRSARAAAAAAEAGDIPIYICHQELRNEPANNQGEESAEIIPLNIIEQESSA
T1 sequence (looked up) 2: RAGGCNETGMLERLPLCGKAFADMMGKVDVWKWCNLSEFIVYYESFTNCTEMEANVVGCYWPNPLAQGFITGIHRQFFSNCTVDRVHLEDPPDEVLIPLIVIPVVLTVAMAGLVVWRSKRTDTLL
Protocol: The binding assay was performed using scintillation proximity assay (SPA) beads (RPNQ0001) from PerkinElmer and cell membranes from the Amylin 3(a)/CRE-luc cells (as described in Assay (II)) were used. Membranes were prepared in the following way; the cells were rinsed with PBS and incubated with Versene for approximately 5 min before harvesting. The cells were flushed with PBS and the cell-suspension was centrifuged for 5 min at 1000 rpm. […] The resulting pellet was resuspended in buffer 2 and protein concentration was tested (BCA protein Assay, Pierce). The homogenate was kept cold during the whole procedure. The membranes were kept at −80° C. until use. The assay was performed in a 384 well Optiplate (PerkinElmer) in a total volume of 40 ul. Membranes were mixed with SPA beads. Final concentration of membranes 35 ng/μL final and SPA beads was 0.05 mg/well. Test-compounds were dissolved in DMSO and further diluted in assay buffer (50 mM Hepes, pH 7.4, 1 mM CaCl2, 5 mM MgCl2, 0.1% OA and 0.02% Tween20). […] Samples were analyzed on TopCounter™ (Packard). The IC₅₀ was calculated using (one site binding competition analysis) GraphPad Prism5 as a measure of receptor affinity.

[2] = biological target: T2, human calcitonin receptor (human, UniProt P30988 25-474); assay: SPA competition vs 125I-calcitonin, membranes with human CTR (Assay VII)
T2 construct: whole, on cells; Assay VII: membranes on SPA beads; also called hCT-R; hCTR
T2 sequence (looked up): T1 sequence (looked up) 1
Protocol: The binding assay was performed using scintillation proximity assay (SPA) beads (RPNQ0001) from PerkinElmer® and cell membranes prepared from a BHK tk'ts 13 cell line was stably transfected with the human calcitonin receptor and a CRE-responsive luciferase reporter gene. Membranes were prepared in the following way; the cells were rinsed with PBS and incubated with Versene for approximately 5 min before harvesting. The cells were flushed with PBS and the cell-suspension was centrifuged for 5 min at 1000 rpm.
EDTA (pH 7.4, buffer 2). The resulting pellet was resuspended in buffer 2 and protein concentration was tested (BCA protein Assay, Pierce). The homogenate was kept cold during the whole procedure. The membranes were kept at −80° C. until use. Assay was performed in a 384 well Optiplate (PerkinElmer®) in a total volume of 40 ul. Membranes were mixed with SPA beads. Final concentration of membranes 35 ng/μL final and Final concentration of SPA beads was 0.05 mg/well. Test-compounds were dissolved in DMSO and further diluted in assay buffer (50 mM Hepes, pH 7.4, 1 mM CaCl2, 5 mM MgCl2, 0.1% OA and 0.02% Tween20). […] Samples were analyzed on TopCounter™ (Packard). The IC₅₀ was calculated using (one site binding competition analysis) GraphPad Prism5 as a measure of receptor affinity.

B1: [N-terminal(C20 diacid-gGlu-2xOEG), des1, 4G, 9V, 15Q, 21Q, 23Y, 30S, 31G, 32T, 33Y]mimylin (peptide)
peptide: {C20 diacid-γGlu-AEEA-AEEA}-ASGLSTAVLGRLSQELHELQTYPRTETGSGTY-NH2
SMILES: CC(C)C[C@H](NC(=O)CNC(=O)[C@H](CO)NC(=O)[C@H](C)NC(=O)COCCOCCNC(=O)COCCOCCNC(=O)CC[C@H](NC(=O)CCCCCCCCCCCCCCCCCCC(=O)O)C(=O)O)C(=O)N[C@@H](CO)C(=O)N[C@H](C(=O)N[C@@H](C)C(=O)N[C@H](C(=O)N[C@@H](CC(C)C)C(=O)NCC(=O)N[C@@H](CCCNC(=N)N)C(=O)N[C@@H](CC(C)C)C(=O)N[C@@H](CO)C(=O)N[C@@H](CCC(N)=O)C(=O)N[C@@H](CCC(=O)O)C(=O)N[C@@H](CC(C)C)C(=O)N[C@@H](Cc1c[nH]cn1)C(=O)N[C@@H](CCC(=O)O)C(=O)N[C@@H](CC(C)C)C(=O)N[C@@H](CCC(N)=O)C(=O)N[C@H](C(=O)N[C@@H](Cc1ccc(O)cc1)C(=O)N1CCC[C@H]1C(=O)N[C@@H](CCCNC(=N)N)C(=O)N[C@H](C(=O)N[C@@H](CCC(=O)O)C(=O)N[C@H](C(=O)NCC(=O)N[C@@H](CO)C(=O)NCC(=O)N[C@H](C(=O)N[C@@H](Cc1ccc(O)cc1)C(N)=O)[C@@H](C)O)[C@@H](C)O)[C@@H](C)O)[C@@H](C)O)C(C)C)[C@@H](C)O
notes: mimylin derivative; des1 = residue 1 deleted; also called Ex. #120; 120
IC50 [1]: 0.166 nM | IC50 [2]: 0.091 nM

B3: [N-terminal(C20 diacid-gGlu), des1, 4G, 9V, 12K, 15Q, 21Q, 23Y, 25P, 30S, 31G, 32T, 33Y]mimylin (peptide)
peptide: {C20 diacid-γGlu}-ASGLSTAVLGKLSQELHELQTYPPTETGSGTY-NH2
SMILES: CC(C)C[C@H](NC(=O)CNC(=O)[C@H](CO)NC(=O)[C@H](C)NC(=O)CC[C@H](NC(=O)CCCCCCCCCCCCCCCCCCC(=O)O)C(=O)O)C(=O)N[C@@H](CO)C(=O)N[C@H](C(=O)N[C@@H](C)C(=O)N[C@H](C(=O)N[C@@H](CC(C)C)C(=O)NCC(=O)N[C@@H](CCCCN)C(=O)N[C@@H](CC(C)C)C(=O)N[C@@H](CO)C(=O)N[C@@H](CCC(N)=O)C(=O)N[C@@H](CCC(=O)O)C(=O)N[C@@H](CC(C)C)C(=O)N[C@@H](Cc1c[nH]cn1)C(=O)N[C@@H](CCC(=O)O)C(=O)N[C@@H](CC(C)C)C(=O)N[C@@H](CCC(N)=O)C(=O)N[C@H](C(=O)N[C@@H](Cc1ccc(O)cc1)C(=O)N1CCC[C@H]1C(=O)N1CCC[C@H]1C(=O)N[C@H](C(=O)N[C@@H](CCC(=O)O)C(=O)N[C@H](C(=O)NCC(=O)N[C@@H](CO)C(=O)NCC(=O)N[C@H](C(=O)N[C@@H](Cc1ccc(O)cc1)C(N)=O)[C@@H](C)O)[C@@H](C)O)[C@@H](C)O)[C@@H](C)O)C(C)C)[C@@H](C)O
notes: mimylin derivative; des1 = residue 1 deleted
IC50 [1]: 0.72 nM | IC50 [2]: 0.651 nM

B6: [N-terminal(C18 diacid-gGlu), des1, 6T, 9V, 14T, 21E, 30T, 31G, 32T]mimylin (peptide)
peptide: {C18 diacid-γGlu}-ASELTTAVLGRLTAELHELETLPRTETGTGTP-NH2
SMILES: CC(C)C[C@H](NC(=O)[C@H](CCC(=O)O)NC(=O)[C@H](C)NC(=O)[C@@H](NC(=O)[C@H](CC(C)C)NC(=O)[C@H](CCCNC(=N)N)NC(=O)CNC(=O)[C@H](CC(C)C)NC(=O)[C@@H](NC(=O)[C@H](C)NC(=O)[C@@H](NC(=O)[C@@H](NC(=O)[C@H](CC(C)C)NC(=O)[C@H](CCC(=O)O)NC(=O)[C@H](CO)NC(=O)[C@H](C)NC(=O)CC[C@H](NC(=O)CCCCCCCCCCCCCCCCC(=O)O)C(=O)O)[C@@H](C)O)[C@@H](C)O)C(C)C)[C@@H](C)O)C(=O)N[C@@H](Cc1c[nH]cn1)C(=O)N[C@@H](CCC(=O)O)C(=O)N[C@@H](CC(C)C)C(=O)N[C@@H](CCC(=O)O)C(=O)N[C@H](C(=O)N[C@@H](CC(C)C)C(=O)N1CCC[C@H]1C(=O)N[C@@H](CCCNC(=N)N)C(=O)N[C@H](C(=O)N[C@@H](CCC(=O)O)C(=O)N[C@H](C(=O)NCC(=O)N[C@H](C(=O)NCC(=O)N[C@H](C(=O)N1CCC[C@H]1C(N)=O)[C@@H](C)O)[C@@H](C)O)[C@@H](C)O)[C@@H](C)O)[C@@H](C)O
notes: as for B3
IC50 [1]: 0.309 nM | IC50 [2]: 0.222 nM

More lines, in order of falling IC50 [1], values ahead:

IC50 [1]: 0.225 nM | IC50 [2]: 0.193 nM
B5: [N-terminal(C20 diacid-gGlu), des1, 4G, 8L, 9V, 15Q, 21Q, 23Y, 30S, 31Q, 32T, 33Y]mimylin (peptide)
peptide: {C20 diacid-γGlu}-ASGLSTLVLGRLSQELHELQTYPRTETGSQTY-NH2
SMILES: CC(C)C[C@H](NC(=O)CNC(=O)[C@H](CO)NC(=O)[C@H](C)NC(=O)CC[C@H](NC(=O)CCCCCCCCCCCCCCCCCCC(=O)O)C(=O)O)C(=O)N[C@@H](CO)C(=O)N[C@H](C(=O)N[C@@H](CC(C)C)C(=O)N[C@H](C(=O)N[C@@H](CC(C)C)C(=O)NCC(=O)N[C@@H](CCCNC(=N)N)C(=O)N[C@@H](CC(C)C)C(=O)N[C@@H](CO)C(=O)N[C@@H](CCC(N)=O)C(=O)N[C@@H](CCC(=O)O)C(=O)N[C@@H](CC(C)C)C(=O)N[C@@H](Cc1c[nH]cn1)C(=O)N[C@@H](CCC(=O)O)C(=O)N[C@@H](CC(C)C)C(=O)N[C@@H](CCC(N)=O)C(=O)N[C@H](C(=O)N[C@@H](Cc1ccc(O)cc1)C(=O)N1CCC[C@H]1C(=O)N[C@@H](CCCNC(=N)N)C(=O)N[C@H](C(=O)N[C@@H](CCC(=O)O)C(=O)N[C@H](C(=O)NCC(=O)N[C@@H](CO)C(=O)N[C@@H](CCC(N)=O)C(=O)N[C@H](C(=O)N[C@@H](Cc1ccc(O)cc1)C(N)=O)[C@@H](C)O)[C@@H](C)O)[C@@H](C)O)[C@@H](C)O)C(C)C)[C@@H](C)O
notes: as for B3

IC50 [1]: 0.216 nM | IC50 [2]: 0.053 nM
B4: [N-terminal(C20 diacid-gGlu), des1, 4G, 9T, 15Q, 21Q, 23Y, 25P, 30S, 31G, 32T, 33Y]mimylin (peptide)
peptide: {C20 diacid-γGlu}-ASGLSTATLGRLSQELHELQTYPPTETGSGTY-NH2
SMILES: CC(C)C[C@H](NC(=O)CNC(=O)[C@H](CO)NC(=O)[C@H](C)NC(=O)CC[C@H](NC(=O)CCCCCCCCCCCCCCCCCCC(=O)O)C(=O)O)C(=O)N[C@@H](CO)C(=O)N[C@H](C(=O)N[C@@H](C)C(=O)N[C@H](C(=O)N[C@@H](CC(C)C)C(=O)NCC(=O)N[C@@H](CCCNC(=N)N)C(=O)N[C@@H](CC(C)C)C(=O)N[C@@H](CO)C(=O)N[C@@H](CCC(N)=O)C(=O)N[C@@H](CCC(=O)O)C(=O)N[C@@H](CC(C)C)C(=O)N[C@@H](Cc1c[nH]cn1)C(=O)N[C@@H](CCC(=O)O)C(=O)N[C@@H](CC(C)C)C(=O)N[C@@H](CCC(N)=O)C(=O)N[C@H](C(=O)N[C@@H](Cc1ccc(O)cc1)C(=O)N1CCC[C@H]1C(=O)N1CCC[C@H]1C(=O)N[C@H](C(=O)N[C@@H](CCC(=O)O)C(=O)N[C@H](C(=O)NCC(=O)N[C@@H](CO)C(=O)NCC(=O)N[C@H](C(=O)N[C@@H](Cc1ccc(O)cc1)C(N)=O)[C@@H](C)O)[C@@H](C)O)[C@@H](C)O)[C@@H](C)O)[C@@H](C)O)[C@@H](C)O
notes: as for B3

IC50 [1]: 0.122 nM | IC50 [2]: 0.057 nM
B2: [N-terminal(C18 diacid-gGlu), des1, 4G, 15Q, 21Q, 23Y, 30S, 31G, 32T, 33Y]mimylin (peptide)
peptide: {C18 diacid-γGlu}-ASGLSTAALGRLSQELHELQTYPRTETGSGTY-NH2
SMILES: CC(C)C[C@H](NC(=O)CNC(=O)[C@H](CO)NC(=O)[C@H](C)NC(=O)CC[C@H](NC(=O)CCCCCCCCCCCCCCCCC(=O)O)C(=O)O)C(=O)N[C@@H](CO)C(=O)N[C@H](C(=O)N[C@@H](C)C(=O)N[C@@H](C)C(=O)N[C@@H](CC(C)C)C(=O)NCC(=O)N[C@@H](CCCNC(=N)N)C(=O)N[C@@H](CC(C)C)C(=O)N[C@@H](CO)C(=O)N[C@@H](CCC(N)=O)C(=O)N[C@@H](CCC(=O)O)C(=O)N[C@@H](CC(C)C)C(=O)N[C@@H](Cc1c[nH]cn1)C(=O)N[C@@H](CCC(=O)O)C(=O)N[C@@H](CC(C)C)C(=O)N[C@@H](CCC(N)=O)C(=O)N[C@H](C(=O)N[C@@H](Cc1ccc(O)cc1)C(=O)N1CCC[C@H]1C(=O)N[C@@H](CCCNC(=N)N)C(=O)N[C@H](C(=O)N[C@@H](CCC(=O)O)C(=O)N[C@H](C(=O)NCC(=O)N[C@@H](CO)C(=O)NCC(=O)N[C@H](C(=O)N[C@@H](Cc1ccc(O)cc1)C(N)=O)[C@@H](C)O)[C@@H](C)O)[C@@H](C)O)[C@@H](C)O)[C@@H](C)O
notes: mimylin derivative; des1 = residue 1 deleted; also called Ex. #110; 110
